For data set [1], the target named is T1, SRSF3 (UniProt P84103).
T1 sequence: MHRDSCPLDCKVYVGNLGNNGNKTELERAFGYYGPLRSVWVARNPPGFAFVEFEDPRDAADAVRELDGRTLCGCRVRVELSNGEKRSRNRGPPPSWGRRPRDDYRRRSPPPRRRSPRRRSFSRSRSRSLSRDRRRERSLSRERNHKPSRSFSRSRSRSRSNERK
The data set can be described thus: Kd (EC50 corrected by depletion factor). The gist of the method: (§1)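 To obtain EC50, data were fitted with a four-parameter log-logistic model; Kd was then EC50 multiplied by a protein-dependent depletion factor. Beforehand, free RNA oligos (0 nM to 30 μM) were pre-incubated with HEK293-FT lysate (2.5 mg protein/well) for 1 h at 4°C. The lysate then spent 30 min at 4°C with the same 5′-amino-C6 oligos coupled to NHS-Sepharose beads, and bound proteins were quantified by label-free LC-MS/MS, normalised to the control.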

Data set [2] deals with T2, RBM4 (UniProt Q9BWF3).
T2 sequence: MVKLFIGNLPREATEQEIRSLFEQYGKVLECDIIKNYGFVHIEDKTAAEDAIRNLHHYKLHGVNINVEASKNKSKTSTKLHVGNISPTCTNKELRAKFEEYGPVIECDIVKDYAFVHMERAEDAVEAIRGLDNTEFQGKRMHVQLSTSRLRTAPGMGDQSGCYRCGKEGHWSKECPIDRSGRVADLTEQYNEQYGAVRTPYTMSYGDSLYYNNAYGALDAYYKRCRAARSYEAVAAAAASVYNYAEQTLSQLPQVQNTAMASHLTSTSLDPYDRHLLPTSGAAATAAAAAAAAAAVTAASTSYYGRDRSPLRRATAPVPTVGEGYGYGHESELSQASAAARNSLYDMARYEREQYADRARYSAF
The data set can be described thus: Kd (EC50 corrected by depletion factor). The gist of the method:
as §1

For data set [3], the target named is T3, CPSF2 (UniProt Q9P2I0).
T3 sequence: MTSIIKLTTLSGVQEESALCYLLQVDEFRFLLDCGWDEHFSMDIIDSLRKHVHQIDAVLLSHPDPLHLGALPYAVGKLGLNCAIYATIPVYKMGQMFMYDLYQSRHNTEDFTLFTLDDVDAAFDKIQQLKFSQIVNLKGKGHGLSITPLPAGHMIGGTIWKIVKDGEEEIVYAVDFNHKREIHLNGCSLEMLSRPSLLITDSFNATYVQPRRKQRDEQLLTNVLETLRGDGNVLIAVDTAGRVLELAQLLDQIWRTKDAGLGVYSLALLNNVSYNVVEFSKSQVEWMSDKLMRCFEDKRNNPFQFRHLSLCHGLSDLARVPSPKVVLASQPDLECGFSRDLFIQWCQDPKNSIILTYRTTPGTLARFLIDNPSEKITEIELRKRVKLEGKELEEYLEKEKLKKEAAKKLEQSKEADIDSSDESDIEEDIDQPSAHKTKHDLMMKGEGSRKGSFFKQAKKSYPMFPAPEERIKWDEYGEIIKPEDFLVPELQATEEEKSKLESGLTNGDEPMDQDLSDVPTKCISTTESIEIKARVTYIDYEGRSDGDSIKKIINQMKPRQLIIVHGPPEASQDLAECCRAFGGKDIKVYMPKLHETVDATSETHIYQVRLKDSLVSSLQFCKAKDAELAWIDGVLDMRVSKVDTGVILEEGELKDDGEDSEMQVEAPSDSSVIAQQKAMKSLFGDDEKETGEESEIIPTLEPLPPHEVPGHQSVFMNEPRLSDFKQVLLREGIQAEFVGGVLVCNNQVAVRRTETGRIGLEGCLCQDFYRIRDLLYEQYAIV
The data set can be described thus: Kd (EC50 corrected by depletion factor). The method, boiled down:
as §1

Data set [4] deals with T4, DAZAP1 (UniProt Q96EP5).
T4 sequence: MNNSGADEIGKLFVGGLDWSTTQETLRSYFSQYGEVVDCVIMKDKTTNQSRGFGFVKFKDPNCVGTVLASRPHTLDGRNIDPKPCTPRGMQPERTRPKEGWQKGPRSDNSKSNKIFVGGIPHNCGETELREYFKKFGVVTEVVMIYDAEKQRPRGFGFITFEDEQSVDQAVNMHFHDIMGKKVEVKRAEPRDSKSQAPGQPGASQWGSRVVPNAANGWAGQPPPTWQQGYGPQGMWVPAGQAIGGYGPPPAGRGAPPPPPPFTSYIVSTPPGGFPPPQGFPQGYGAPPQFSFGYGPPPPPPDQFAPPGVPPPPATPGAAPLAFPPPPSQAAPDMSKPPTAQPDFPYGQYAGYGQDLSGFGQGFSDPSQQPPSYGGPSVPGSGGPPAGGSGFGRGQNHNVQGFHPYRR
The data set can be described thus: Kd (EC50 corrected by depletion factor). The method, boiled down:
as §1

Data set [5] has as its target SLIRP (UniProt Q9GZT3). The data set can be described thus: Kd (EC50 corrected by depletion factor). The method, boiled down: as §1
In data set [6] the target is T5, HNRNPD (UniProt Q14103).
T5 sequence: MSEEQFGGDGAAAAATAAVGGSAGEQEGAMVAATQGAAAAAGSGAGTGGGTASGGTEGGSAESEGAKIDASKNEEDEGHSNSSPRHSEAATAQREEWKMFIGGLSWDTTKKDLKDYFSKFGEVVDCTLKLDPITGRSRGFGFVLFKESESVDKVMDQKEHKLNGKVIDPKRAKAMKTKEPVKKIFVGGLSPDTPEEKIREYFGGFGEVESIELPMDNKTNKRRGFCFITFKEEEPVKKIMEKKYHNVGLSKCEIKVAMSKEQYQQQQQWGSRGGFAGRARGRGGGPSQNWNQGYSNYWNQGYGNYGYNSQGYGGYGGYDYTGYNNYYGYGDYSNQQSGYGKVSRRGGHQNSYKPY
The data set can be described thus: EC50 of free RNA motif oligo competing protein binding to immobilised probe. The method, boiled down: as §1

For data set [7], the target named is T6, LSM1 (UniProt O15116).
T6 sequence: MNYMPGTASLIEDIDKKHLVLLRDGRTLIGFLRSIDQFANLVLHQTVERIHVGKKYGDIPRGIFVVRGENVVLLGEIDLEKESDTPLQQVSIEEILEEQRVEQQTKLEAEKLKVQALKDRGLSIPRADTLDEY
The description is as above. The gist of the method:
as §1

AAUAAA: the Kd amounted to 281 nM in data set [1]; 344 nM in data set [2]; 5.66 nM in data set [3]; 113 nM in data set [4]; 393 nM in data set [5]. For the same sequence, the EC50 in data set [6] stood at 6520 nM; in data set [7], 188 nM.

CUGUCCU: the Kd in data set [1] was 790 nM; in data set [2] it was 131 nM; in data set [5], 904 nM.

With UAUUUAU, the Kd in data set [3] was found to be 452 nM; in data set [4], 286 nM. In addition, the figures for the EC50 in data set [6] and in data set [7] were 653 nM and 395 nM, respectively.

The Kd is the free concentration of one partner at which half of the binding sites on the other are occupied at equilibrium, for simple one-to-one binding. A lower Kd goes with higher affinity. As a reminder, the EC50 is the midpoint of the concentration-response curve. Low values mean higher potency in that assay, high ones lower potency in that assay.

(Values after the supplement of paper PMC6379048.)
